The source of these data is the supplement of paper PMC11502859.
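Further: lentiviral eGFP-IRES-mCherry reporter pool sorted by FACS 96 h post-transduction, gated on mCherry-high cells, Illumina read counts normalized per million, median across four biological replicates.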

The data set deals with HEK293T. In words: median enrichment of reporter reads in eGFP-reduced (low/intermediate) vs eGFP-high sorted cells (eGFP-extension fusion abundance) (ratio); higher = stronger loss of eGFP-fusion protein abundance (more destabilising extension).
Consider LIPQPGLPVHLLTLLKSSIVVIL [CD46], for which the median enrichment came to 10.7. Next, RVTKKTMHHKIAQSSAEQFSGDPWTQ [CXCL6]: 0.284; SEPSHSLSPLPCLPHLPPTTRA [RAB3A]: 0.136. YGTDGRRGPGTPGMGGPNP [GATA2]: the median enrichment was determined as 1.68. Then “RQEGPSGRDGPGGGQMGRCGRHVIDSTEGLSCVPPTLPWTDSEGPPGTSAKAG [KCNF1]”, with 5.07. Next, SCRVFSSFFLLQEFVVT [MMP16]: 3.12; YKNQNGLR [ADGRB3]: 0.651.

WGAAYQSLGSHLLRC [C11orf91]: the median enrichment was 5.76. Take SLIRLAT [AK6]: the median enrichment stood at 9.3. As for “WAAAARPSGTPASPGGALGQVPSGRTTPGPQGPRPAATLVVAASRSAFGRPLGVAGAARRVQVEVPVPGPQRA [B3GALT6]”, the median enrichment was 8.24. For the substance “SSAYLGLPKCWDYRREPNAQPRGVVFRDISESEGETQD [APOC1]”, the median enrichment came to 1.19. Next, SSSSSSSSSS [Ser10]: 0.553; YISHVNLPER [MSMO1]: 15.7; WRGARAPWSL [CEP104]: 1.95. Next, LIGCMEK [BTN3A1]: 11.1; QGHACAPMGFLFSFFFFLVGGVGGLD [PRKACA]: 5.49; YMSEVQTLKKLAF [SLC7A13]: 4.37. Next, CLFCPHIFCFLGRMAEAWWLPPRSGTD [NR1H3]: 12.1.

As for QQQQQQQQQQ [Gln10], the median enrichment was determined as 0.317. Turning to KKKLSHREKNI [OGA], the median enrichment is 0.598.

In the case of “WWRDTRGLATLWGNWHQELLHLVSAQVDLRKGWIPVPEHQIPRQLMRLAQCVTEAPGSQQSRAYSAHQAEQATGRDDASGQGS [CCDC137]”, the median enrichment came to 7.53. With “QKRMMMTFIIHKQWEVQQCLGADLRRRMIFLSLLTT [MROH9]”, the median enrichment was found to be 20.2. Next, YAVQSSFSGA [NLRP8]: 5.86.

Turning to “LPLKTVPLRDPKTLGIDTWASGRAQPWAGGLLRTQRCAWNHS [SLC4A3]”, the median enrichment turned out to be 31. Then “GAPPPGWTGAWLPSSFLPWLPEETPLTQPAWALTTNTLGHGQPAQDRLPALGHCAPISVLGLGSS [TTYH1]”, with 15.2. Next, “RLVIFFQRVMQSGYKRIFCLPYKGILPAAKFKQ [ARMC10]”: 14.7; “LAPASGLAIPLLSADYGVSTFGHNTYSPFTLYHSATNHRTDHLRLFLLALCVQDSLIHFCW [GIGYF2]”: 35.9. In the case of LQCTIFSHLYYFFSACIT [HAO1], the median enrichment amounted to 1.93. Next, WSLRWSFVTARFARHLPGWLVLG [ARHGEF26]: 15.8; WSILQDLPEAA [PCDH10]: 9.03. Take “RALLAPAFHALPIPPPPPPPPATEGRPEPPSLPSPLGGRGGHWKGGTPPPQQLRRGFWN [TOMM40]”: the median enrichment is 0.777. In the case of “RGDAVGLAEPRFSHQQGECWPDTSEDPGLVIICLGGTG [GMPPB]”, the median enrichment turned out to be 7.69. As for LLAG [QKI], the median enrichment stood at 4.55. Next, “RKINYTFYSPPEDHCPKAGSICSNNAAFTSSVHLCS [OR4M1]”: 10.5; “SMALVALEWDPALTSPRANLGGAEGALGHRKQGKKGRSCGEMTLIFDCYPNLDL [NDRG2]”: 7.41. Then WKK [JAK2], with 0.476; and KQRRWTFCSNVYMYRIVHTSNSEDLYL [SLC10A7], with 6.06. Then READTFFQQ [ADAM12], with 0.392; and ECDKVQPSDLIIHKIIYT [ZNF679], with 8.95; and “SDRTCLRGRRTLAWAQESEAAFLLRGPSGESGPRYHARTLRGPVSCRRVSTFPPNPGLTALRSARRARAETRVGCGELKEPIK [UQCC3]”, with 3.65. “QCGSCDRGSSSAEPQTVLPCSMCLKAQGDIPLGWPLPPP [DIAPH1]”: the median enrichment stood at 1.17. Next, YVCAEESKTPFRATIPQ [SLC22A25]: 1.62. On to “EIPQHGSLMFICCLSFLLSFPVCFQFSTSSAHPVLCPFVCVRTI [PCLO]”, for which the median enrichment came out at 8.91. For WNHRSGRSRALSSCTVFIVPGTLFKDI [LIN7B], the median enrichment amounted to 4.84.

On to KQIKLDEIYNYLIAQ [MDH1B], for which the median enrichment was determined as 18.9. For SWHSSPHTCSQAQMEVP [ACTL6B], the median enrichment was 0.404. Then YLKNMYPL [ERCC5], with 7.72.

On to GLPPWSLNPAPTSCLFS [PRDM10], for which the median enrichment amounted to 5.78.

In the case of “YQHWPSVFLGGTSQEPLPALLESQRGQEAVAGASTQLG [GDF5]”, the median enrichment was 1.15. WWPRIPIEQHKARLG [RNF216]: the median enrichment is 26.7. Regarding “SVWAGLFNMVFAVLPPWGPWSDNIVSLVRLSRCLIRTANGASPTPPRVRPPFHQRVSSQRPPASCPAAQEEKEGLNSIAIFFP [PDGFB]”, the median enrichment stood at 7.44. Then “SGLVCRTAAGAPPGQIIAASDCGLYLFIPSDFFNVRYL [FBLN1]”, with 30.5; and “RGLGWAGARRAAGWPLGGQDGTVGTEVGGRGPSGLN [TNFRSF8]”, with 6.62. Then LGLRVHTGWQEASKGS [SERPINH1], with 4.89; and STFKAFVK [GATA1], with 0.381.

For the substance “CDAQTASSATKRPENSRFTTFLSHVEAFPFNRGPSSEPRPISAIFFS [LMBR1]”, the median enrichment amounted to 12. Then YEYA [BOD1L2], with 0.662. Next, PPPPP [Pro05]: 0.529; QATPAWPRSQDTGQGRPGPEELGAGPQT [APBA2]: 0.312. Then LISHSYLLKYI [ELAVL4], with 7.49.

On to “LCDCSKLWCKIPPVSSHLPDFYLGLARTSSPSYQPSLPPSSHWTPALALPLG [LY6G5C]”, for which the median enrichment came out at 3.74. Consider LPVRPAQPGPGPRFSTRTVHPASRSL [DLGAP3], for which the median enrichment was found to be 17.6. Take KHLHVLSNFACPFSSVSE [CYB5R2]: the median enrichment is 2.44.

For QTFCSYRLKYLLPIRFFCDMCLPAVN [CCDC59], the median enrichment turned out to be 6.05. Turning to LEKAIWDLITLNRHANTVCVRALCIQ [PCDH9], the median enrichment was 9.37. Take LNGSHSVTQAGVKWPNHSSLQPQPGRFR [COX17]: the median enrichment was 8.21. Next, “LSFRQFSSNGPFQGRPLPLRKSCDCILSDGNISMALLGYSA [HIST1H4B]”: 5.72; “QPWSITLPPSPGTTGPITFECCIWISRCLCGSLPHFSWT [UBE2Q1]”: 7.69; “WRGEGRPAVDSLILGRSLGCAAISFCECANTKLSRAKL [SLC25A25]”: 6.74.

As for SSKEVILFCLLIIM [CHMP2B], the median enrichment is 6.82. With “KGPEPGWGISAGQRRRLSQLFPDIQGHCSLLPSRTSLLPPTMAGGEQVSQKHPVPRMVLCACPSLLGLPFPLLREDVSLLTCT [KIRREL1]”, the median enrichment is 7.38. Then “SGGVGPGRAGVCWHRQPPLWALGGPLKGSPTRGPDESFLSGVGSQRGSPPAAWGRAWPGRVIQRVCQPLTGSPSVAATRSTEL [FAM53B]”, with 5.41; and “RQGRLRGQAGGQQLQEGSDNSPPAWAHLLLLLLLGSAPQTRLWPPSQCPVTSPE [CRACR2B]”, with 9.74; and SWVCAQPFKAAGSTT [TRIM45], with 4.99. In the case of MMMMM [Met05], the median enrichment was 5.18. Then WGPGRGPGAVGT [INSYN1], with 5.06; and QNLREPVV [CEP89], with 0.464; and LVC [SYT16], with 1.2.

As for WDSSQFERQ [MYCBP], the median enrichment turned out to be 0.249. Then RGLRRGLTEP [SLC22A6], with 0.442; and RSGTGRLLIEIHLLGGTGFP [MRNIP], with 8.41. Then SILFHLILALHLLYISPE [CLRN3], with 9.21.

As for KLQC [OR4C6], the median enrichment came out at 0.547. Next, KKSSINVLSIGKYT [GRIN2A]: 1.77; “QSTGRKCFWTEVVAVEGVASSCRQTIILEILVEVPSPIRHSNMSTNALKWN [EPHA3]”: 14.9; “PTVRPQRGQDKPCPDAFDRQLCVLVDRCRNKEEMESAPEKLQIQARREVLRKDLQQLHIHINQHNTGWRPNSGVHKRRRDVVG [H6PD]”: 5.25. For YKRFNFQ [IGSF6], the median enrichment is 1.72. Take SSSSSSS [Ser07]: the median enrichment worked out at 0.279. Then “LAAWDRSTNYTGSGIRVSKMSYECRSEGHMLTLESVER [NLRP7]”, with 13.6; and “RERTTPSLPSMDGHSSAASSATSCSQPMPGGAAIFSPHHPFTHS [EHMT2]”, with 0.484; and YIAD [FUCA2], with 0.607.

In the case of “WRKRDAGTHPCLREVWLSPNPPHRPPFTKHLSCLMCPIELHSVRLDAVISGTYVTMFAEAPGVVGRGGRCG [RNF144A]”, the median enrichment was determined as 6.33. Next, “AGRAPPCMMGKAILPLPPPCFCCLFGEGGGEVGAAAPHPSSLLICTHWPLQTRTSGASPSPPPPCLAAGVAMMGWSSLGQGVL [SCN1B]”: 3.87; YVDLRQTLGGVKESHRYPKE [MAGEH1]: 3.34. As for WSLTRSLISRSTCVFIPPGN [FLT1], the median enrichment is 4.28. Next, GVPGHSGLVQTPLL [PAF1]: 0.255; WGYWPTLWAPCSA [EFCC1]: 7.99; “LRRRMSLRAPSWSGPRHPGTSALPPPALLHHMSS [ADHFE1]”: 18.5.

As to EGPPCICT [PDK2], the median enrichment is 1.79.

With RAETSALLTLRDTTRLHGEV [CORO2A], the median enrichment stood at 6.49.

On to “WWSCDVHEVLPHALEGSESRVNCPADILLGFLA [SLC7A6OS]”, for which the median enrichment worked out at 8.62. Next, DDDDDDDDD [Asp09]: 0.213; “SGARLWDRPGPASGGDPGSGLGSPDLEACPSRASQD [CEBPA]”: 0.648.
